Experimental data reported in US20250049972A1, “METHOD OF DETECTING PROSTATE CANCER IN A HUMAN SUBJECT USING A Cu 64 PSMA I&T INJECTION” (Curium US LLC, priority 2023, published 2025).

Design: species or system human
Conditions: in vivo
Description: Radiation dosimetry estimates for normal organs were determined for copper Cu-64 PSMA I&T based on biodistribution collected from the 12 patients enrolled in the trial. Whole-body PET/CT images acquired at 1 hour (±15 minutes), 4 hours (±30 minutes), and 24 hours (±2.0 hours) post injection were used together with blood samples collected prior to and 1, 2, 4, and 24 hours post injection and total voided urine samples collected for 0 to 1-hour and 1 to 4-hour intervals post injection.
This analysis was performed with the objective of estimation of radiation dosimetry of Cu-64 PSMA I&T based on bio-distribution determined using PET image data collected in twelve human subjects. […] The maximum deviation was 13%. Activities were normalized to 100% based on the first imaging time to prevent over or under estimation of absorbed dose.
Third, calculating Source Organ Time-Activity Bio-Kinetic Modeling using bio-distribution data for the listed organs utilizing the following Equation Three: […]
The bio-distribution data for the listed organs and remainder tissues in the study may be determined using the image quantification methodology described above. Organ and tissue data may be decay corrected to fit in a least squares sense using non-linear regression with sums of exponentials of the form shown in Equation Three.

SMILES: O=C(O)CC[C@H](NC(=O)N[C@@H](CCCCNC(=O)CCCCCCC(=O)NCCCC[C@@H](NC(=O)[C@@H](Cc1ccccc1)NC(=O)[C@@H](Cc1ccc(O)c(I)c1)NC(=O)CC[C@H](C(=O)O)N1CCN(CC(=O)O)CCN(CC(=O)O)CCN(CC(=O)O)CC1)C(=O)O)C(=O)O)C(=O)O [Cu-64 PSMA I&T, 64 Cu-(3S, 7S, 26R, 29R, 32R, 37R)-29-benzyl-32(4-hydroxy-3-iodobenzyl)-5, 13, 20, 28, 31, 34-hexaoxo-37-(4,7,10-tris(carboxymethyl)-1,4,7, 10-tetraazacyclododecan-1-yl)-4,6, 12, 21, 27, 30, 33-heptaazaheptatriacontane-1,3,7, 26, 37-pentacarboxylic acid, metal not drawn]
- Normalized Number of Disintegrations, Mean, Remainder (human): 6.9 h
- Dose Estimate, Mean, Adrenals: 0.045 mGy/MBq
- Dose Estimate, Mean, Brain: 0.011 mGy/MBq
- Dose Estimate, Mean, Esophagus: 0.020 mGy/MBq
- Dose Estimate, Mean, Eyes: 0.010 mGy/MBq
- Dose Estimate, Mean, Gallbladder Wall: 0.051 mGy/MBq
- Dose Estimate, Mean, Heart Wall: 0.055 mGy/MBq
- Dose Estimate, Mean, Kidneys: 0.19 mGy/MBq
- Dose Estimate, Mean, Lacrimal Glands: 0.16 mGy/MBq
- Dose Estimate, Mean, Left colon: 0.25 mGy/MBq
- Dose Estimate, Mean, Liver: 0.25 mGy/MBq
- Dose Estimate, Mean, Lungs: 0.018 mGy/MBq
- Dose Estimate, Mean, Osteogenic Cells: 0.018 mGy/MBq
- Dose Estimate, Mean, Pancreas: 0.054 mGy/MBq
- Dose Estimate, Mean, Pituitary: 0.037 mGy/MBq
- Dose Estimate, Mean, Prostate: 0.027 mGy/MBq
- Dose Estimate, Mean, Rectum: 0.15 mGy/MBq
- Dose Estimate, Mean, Red Marrow: 0.023 mGy/MBq
- Dose Estimate, Mean, Right colon: 0.22 mGy/MBq
- Dose Estimate, Mean, Salivary Glands: 0.12 mGy/MBq
- Dose Estimate, Mean, Small Intestine: 0.067 mGy/MBq
- Dose Estimate, Mean, Spleen: 0.048 mGy/MBq
- Dose Estimate, Mean, Stomach Wall: 0.063 mGy/MBq
- Dose Estimate, Mean, Testes: 0.035 mGy/MBq
- Dose Estimate, Mean, Thymus: 0.015 mGy/MBq
- Dose Estimate, Mean, Thyroid: 0.015 mGy/MBq
- Dose Estimate, Mean, Total Body: 0.022 mGy/MBq
- Dose Estimate, Mean, Urinary Bladder Wall: 0.074 mGy/MBq
- Normalized Number of Disintegrations, Mean, Heart wall: 0.17 h
- Normalized Number of Disintegrations, Mean, Kidneys: 0.69 h
- Normalized Number of Disintegrations, Mean, Lacrimal Glands: 0.0033 h
- Normalized Number of Disintegrations, Mean, Liver: 5.0 h
- Normalized Number of Disintegrations, Mean, Pancreas: 0.058 h
- Normalized Number of Disintegrations, Mean, Pituitary: 0.00033 h
- Normalized Number of Disintegrations, Mean, Prostate: 0.0047 h
- Normalized Number of Disintegrations, Mean, Red Marrow: 0.28 h
- Normalized Number of Disintegrations, Mean, Salivary glands: 0.12 h
- Normalized Number of Disintegrations, Mean, Spleen: 0.096 h
- Normalized Number of Disintegrations, Mean, Stomach Wall: 0.083 h
- Normalized Number of Disintegrations, Mean, Testes: 0.015 h
- Normalized Number of Disintegrations, Mean, Thyroid: 0.0035 h
- Normalized Number of Disintegrations, Mean, Whole Body: 15 h
